Assay results reported in paper PMC9482650, “Quantitative fragmentomics allow affinity mapping of interactomes” (Nature Communications, 2022).

T1: APBA2_1, Q99767
T1 sequence (Q99767 563-664, limits assumed, looked up): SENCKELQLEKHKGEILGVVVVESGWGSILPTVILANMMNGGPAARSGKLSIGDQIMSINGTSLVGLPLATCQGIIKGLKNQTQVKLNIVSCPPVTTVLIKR

T2: APBA2_2, Q99767
T2 sequence (Q99767 654-744, limits assumed, looked up): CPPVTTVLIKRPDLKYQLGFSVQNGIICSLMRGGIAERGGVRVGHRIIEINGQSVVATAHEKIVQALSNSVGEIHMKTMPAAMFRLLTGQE

T3: CARD11, Q9BXL7
T3 sequence (Q9BXL7 662-765, limits assumed, looked up): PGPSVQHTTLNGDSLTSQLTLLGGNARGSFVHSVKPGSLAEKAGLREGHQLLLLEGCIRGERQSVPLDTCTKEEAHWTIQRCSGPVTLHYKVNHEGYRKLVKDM

T4: DVL3, Q92997
T4 sequence (Q92997 244-331, limits assumed, looked up): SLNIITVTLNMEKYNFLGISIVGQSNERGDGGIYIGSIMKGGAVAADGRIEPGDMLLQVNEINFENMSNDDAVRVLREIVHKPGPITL

T5: FRMPD1, Q5SYB0
T5 sequence (Q5SYB0 52-145, limits assumed, looked up): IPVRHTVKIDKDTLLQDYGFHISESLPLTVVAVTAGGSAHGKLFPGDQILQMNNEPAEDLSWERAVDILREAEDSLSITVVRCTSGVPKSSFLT

T6: GRIP1_7, Q9Y3R0
T6 sequence (Q9Y3R0 999-1096, limits assumed, looked up): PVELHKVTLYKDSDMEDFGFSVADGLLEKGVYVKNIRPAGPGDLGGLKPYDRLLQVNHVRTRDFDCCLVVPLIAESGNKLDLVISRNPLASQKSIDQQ

T7: HTRA4, P83105
T7 sequence (P83105 378-476, limits assumed, looked up): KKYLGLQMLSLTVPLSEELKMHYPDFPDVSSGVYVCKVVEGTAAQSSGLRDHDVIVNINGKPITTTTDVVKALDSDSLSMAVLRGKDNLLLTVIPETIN

T8: LNX2_2, Q8N448
T8 sequence (Q8N448 334-432, limits assumed, looked up): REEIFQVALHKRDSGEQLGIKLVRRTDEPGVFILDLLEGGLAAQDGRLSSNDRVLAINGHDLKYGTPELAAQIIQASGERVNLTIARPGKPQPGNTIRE

T9: MPDZ_12, O75970
T9 sequence (O75970 1857-1958, limits assumed, looked up): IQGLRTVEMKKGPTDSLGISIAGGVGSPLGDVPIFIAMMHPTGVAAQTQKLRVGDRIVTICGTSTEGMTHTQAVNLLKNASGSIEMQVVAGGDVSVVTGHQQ

T10: MPP2, Q14168
T10 sequence (Q14168 180-250, limits assumed, looked up): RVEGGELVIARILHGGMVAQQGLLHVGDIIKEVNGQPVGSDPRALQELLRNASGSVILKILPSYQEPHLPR

T11: MPP7, Q5T2T1
T11 sequence (Q5T2T1 134-230, limits assumed, looked up): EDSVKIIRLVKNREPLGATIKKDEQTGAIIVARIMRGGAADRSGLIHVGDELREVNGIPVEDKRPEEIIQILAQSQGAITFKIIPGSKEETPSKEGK

T12: NHERF3_3, Q5T2W1
T12 sequence (Q5T2W1 238-333, limits assumed, looked up): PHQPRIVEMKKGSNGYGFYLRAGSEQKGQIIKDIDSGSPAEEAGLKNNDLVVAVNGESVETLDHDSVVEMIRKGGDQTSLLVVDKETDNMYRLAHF

T13: PDZD7_3, Q9H5P4
T13 sequence (Q9H5P4 857-944, limits assumed, looked up): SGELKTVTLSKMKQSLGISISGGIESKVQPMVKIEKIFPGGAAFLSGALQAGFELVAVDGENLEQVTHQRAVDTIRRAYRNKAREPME

T14: SNTG1, Q9NSN8
T14 sequence (Q9NSN8 52-150, limits assumed, looked up): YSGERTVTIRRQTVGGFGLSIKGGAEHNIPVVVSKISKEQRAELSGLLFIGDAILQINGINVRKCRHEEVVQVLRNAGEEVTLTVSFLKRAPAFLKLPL

T15: TIAM2, Q8IVF5
T15 sequence (Q8IVF5 885-986, limits assumed, looked up): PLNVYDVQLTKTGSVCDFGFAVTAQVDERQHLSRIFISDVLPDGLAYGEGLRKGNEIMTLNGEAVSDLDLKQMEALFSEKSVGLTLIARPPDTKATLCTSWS


target: AHNAK1, Q09666; assay: holdup assay; parameters: key: below the threshold = too weak to quantify, mostly under pKd 3.1 to 4; conditions: plain residues with an end cap or a label only (N-terminal biotin on a linker: ado-ado)
Sequence (Q09666 4-100): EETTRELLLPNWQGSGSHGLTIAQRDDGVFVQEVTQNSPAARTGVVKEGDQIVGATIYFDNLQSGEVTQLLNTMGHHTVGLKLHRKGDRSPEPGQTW

Binder | pKd
PALKNGQYWV [CSPG4, Q6UVK1] | below the threshold
SAGADSETHC [SLCO1B1, Q9Y6L6] | below the threshold

target: T1, APBA2_1, Q99767; assay: holdup assay; parameters: key: below the threshold = too weak to quantify, mostly under pKd 3.1 to 4; conditions: plain residues with an end cap or a label only (N-terminal biotin on a linker: ado-ado)

Binder | pKd
PALKNGQYWV [CSPG4, Q6UVK1] | below the threshold
SAGADSETHC [SLCO1B1, Q9Y6L6] | below the threshold

target: T2, APBA2_2, Q99767; assay: holdup assay; parameters: key: below the threshold = too weak to quantify, mostly under pKd 3.1 to 4; conditions: plain residues with an end cap or a label only (N-terminal biotin on a linker: ado-ado)

Binder | pKd
PALKNGQYWV [CSPG4, Q6UVK1] | below the threshold
SAGADSETHC [SLCO1B1, Q9Y6L6] | below the threshold

target: ARHGEF12, Q9NZN5-2; assay: holdup assay; parameters: key: below the threshold = too weak to quantify, mostly under pKd 3.1 to 4; conditions: plain residues with an end cap or a label only (N-terminal biotin on a linker: ado-ado)
Sequence (Q9NZN5 other isoform, or with tags, fused parts or gaps): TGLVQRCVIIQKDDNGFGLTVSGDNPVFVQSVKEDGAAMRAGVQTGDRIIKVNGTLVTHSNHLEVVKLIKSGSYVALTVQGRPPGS

Binder | pKd
PALKNGQYWV [CSPG4, Q6UVK1] | below the threshold
SAGADSETHC [SLCO1B1, Q9Y6L6] | below the threshold

target: T3, CARD11, Q9BXL7; assay: holdup assay; parameters: key: below the threshold = too weak to quantify, mostly under pKd 3.1 to 4; conditions: plain residues with an end cap or a label only (N-terminal biotin on a linker: ado-ado)

Binder | pKd
PALKNGQYWV [CSPG4, Q6UVK1] | below the threshold
SAGADSETHC [SLCO1B1, Q9Y6L6] | below the threshold

target: T4, DVL3, Q92997; assay: holdup assay; parameters: key: below the threshold = too weak to quantify, mostly under pKd 3.1 to 4; conditions: plain residues with an end cap or a label only (N-terminal biotin on a linker: ado-ado)

Binder | pKd
PALKNGQYWV [CSPG4, Q6UVK1] | 4.2
SAGADSETHC [SLCO1B1, Q9Y6L6] | below the threshold

target: T5, FRMPD1, Q5SYB0; assay: holdup assay; parameters: key: below the threshold = too weak to quantify, mostly under pKd 3.1 to 4; conditions: plain residues with an end cap or a label only (N-terminal biotin on a linker: ado-ado)

Binder | pKd
PALKNGQYWV [CSPG4, Q6UVK1] | below the threshold
SAGADSETHC [SLCO1B1, Q9Y6L6] | below the threshold

target: T6, GRIP1_7, Q9Y3R0; assay: holdup assay; parameters: key: below the threshold = too weak to quantify, mostly under pKd 3.1 to 4; conditions: plain residues with an end cap or a label only (N-terminal biotin on a linker: ado-ado)

Binder | pKd
PALKNGQYWV [CSPG4, Q6UVK1] | 5.63
SAGADSETHC [SLCO1B1, Q9Y6L6] | below the threshold

target: GRIP2_3, Q9C0E4; assay: holdup assay; parameters: key: below the threshold = too weak to quantify, mostly under pKd 3.1 to 4; conditions: plain residues with an end cap or a label only (N-terminal biotin on a linker: ado-ado)
Sequence (Q9C0E4 238-339): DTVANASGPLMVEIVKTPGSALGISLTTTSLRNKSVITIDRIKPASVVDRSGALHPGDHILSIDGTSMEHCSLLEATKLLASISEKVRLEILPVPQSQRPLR

Binder | pKd
PALKNGQYWV [CSPG4, Q6UVK1] | below the threshold
SAGADSETHC [SLCO1B1, Q9Y6L6] | below the threshold

target: T7, HTRA4, P83105; assay: holdup assay; parameters: key: below the threshold = too weak to quantify, mostly under pKd 3.1 to 4; conditions: plain residues with an end cap or a label only (N-terminal biotin on a linker: ado-ado)

Binder | pKd
PALKNGQYWV [CSPG4, Q6UVK1] | 4.14
SAGADSETHC [SLCO1B1, Q9Y6L6] | below the threshold

target: Inadl_3, Q8NI35; assay: holdup assay; parameters: key: below the threshold = too weak to quantify, mostly under pKd 3.1 to 4; conditions: plain residues with an end cap or a label only (N-terminal biotin on a linker: ado-ado)
Sequence (Q8NI35 359-469): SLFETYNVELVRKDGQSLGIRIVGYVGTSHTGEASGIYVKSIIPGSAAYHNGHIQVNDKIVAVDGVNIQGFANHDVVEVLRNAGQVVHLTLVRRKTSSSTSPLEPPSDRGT

Binder | pKd
PALKNGQYWV [CSPG4, Q6UVK1] | 3.58
SAGADSETHC [SLCO1B1, Q9Y6L6] | below the threshold

target: LIMK2, P53671; assay: holdup assay; parameters: key: below the threshold = too weak to quantify, mostly under pKd 3.1 to 4; conditions: plain residues with an end cap or a label only (N-terminal biotin on a linker: ado-ado)
Sequence (P53671 143-248): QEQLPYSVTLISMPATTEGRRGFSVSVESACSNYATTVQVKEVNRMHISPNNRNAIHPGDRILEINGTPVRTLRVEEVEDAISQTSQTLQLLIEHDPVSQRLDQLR

Binder | pKd
PALKNGQYWV [CSPG4, Q6UVK1] | below the threshold
SAGADSETHC [SLCO1B1, Q9Y6L6] | below the threshold

target: T8, LNX2_2, Q8N448; assay: holdup assay; parameters: key: below the threshold = too weak to quantify, mostly under pKd 3.1 to 4; conditions: plain residues with an end cap or a label only (N-terminal biotin on a linker: ado-ado)

Binder | pKd
PALKNGQYWV [CSPG4, Q6UVK1] | 5.28
SAGADSETHC [SLCO1B1, Q9Y6L6] | below the threshold

target: MAST2, Q6P0Q8; assay: holdup assay; parameters: key: below the threshold = too weak to quantify, mostly under pKd 3.1 to 4; conditions: plain residues with an end cap or a label only (N-terminal biotin on a linker: ado-ado)
Sequence (Q6P0Q8 1099-1202): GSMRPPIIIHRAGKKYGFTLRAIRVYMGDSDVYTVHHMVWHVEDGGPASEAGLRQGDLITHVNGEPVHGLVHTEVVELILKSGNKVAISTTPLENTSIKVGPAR

Binder | pKd
PALKNGQYWV [CSPG4, Q6UVK1] | 4.07
SAGADSETHC [SLCO1B1, Q9Y6L6] | 4.62

target: T9, MPDZ_12, O75970; assay: holdup assay; parameters: key: below the threshold = too weak to quantify, mostly under pKd 3.1 to 4; conditions: plain residues with an end cap or a label only (N-terminal biotin on a linker: ado-ado)

Binder | pKd
PALKNGQYWV [CSPG4, Q6UVK1] | 3.61
SAGADSETHC [SLCO1B1, Q9Y6L6] | below the threshold

target: T10, MPP2, Q14168; assay: holdup assay; parameters: key: below the threshold = too weak to quantify, mostly under pKd 3.1 to 4; conditions: plain residues with an end cap or a label only (N-terminal biotin on a linker: ado-ado)

Binder | pKd
PALKNGQYWV [CSPG4, Q6UVK1] | below the threshold
SAGADSETHC [SLCO1B1, Q9Y6L6] | below the threshold

target: T11, MPP7, Q5T2T1; assay: holdup assay; parameters: key: below the threshold = too weak to quantify, mostly under pKd 3.1 to 4; conditions: plain residues with an end cap or a label only (N-terminal biotin on a linker: ado-ado)

Binder | pKd
PALKNGQYWV [CSPG4, Q6UVK1] | 3.96
SAGADSETHC [SLCO1B1, Q9Y6L6] | below the threshold

target: T12, NHERF3_3, Q5T2W1; assay: holdup assay; parameters: key: below the threshold = too weak to quantify, mostly under pKd 3.1 to 4; conditions: plain residues with an end cap or a label only (N-terminal biotin on a linker: ado-ado)

Binder | pKd
PALKNGQYWV [CSPG4, Q6UVK1] | below the threshold
SAGADSETHC [SLCO1B1, Q9Y6L6] | below the threshold

target: T13, PDZD7_3, Q9H5P4; assay: holdup assay; parameters: key: below the threshold = too weak to quantify, mostly under pKd 3.1 to 4; conditions: plain residues with an end cap or a label only (N-terminal biotin on a linker: ado-ado)

Binder | pKd
PALKNGQYWV [CSPG4, Q6UVK1] | below the threshold
SAGADSETHC [SLCO1B1, Q9Y6L6] | below the threshold

target: SCRIB_1, Q14160; assay: holdup assay; parameters: key: below the threshold = too weak to quantify, mostly under pKd 3.1 to 4; conditions: plain residues with an end cap or a label only (N-terminal biotin on a linker: ado-ado)
Sequence (Q14160 718-814): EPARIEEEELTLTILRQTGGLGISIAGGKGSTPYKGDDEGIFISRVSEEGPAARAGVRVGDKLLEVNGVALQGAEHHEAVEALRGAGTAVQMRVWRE

Binder | pKd
PALKNGQYWV [CSPG4, Q6UVK1] | below the threshold
SAGADSETHC [SLCO1B1, Q9Y6L6] | 3.68

target: T14, SNTG1, Q9NSN8; assay: holdup assay; parameters: key: below the threshold = too weak to quantify, mostly under pKd 3.1 to 4; conditions: plain residues with an end cap or a label only (N-terminal biotin on a linker: ado-ado)

Binder | pKd
PALKNGQYWV [CSPG4, Q6UVK1] | below the threshold
SAGADSETHC [SLCO1B1, Q9Y6L6] | 3.66

target: T15, TIAM2, Q8IVF5; assay: holdup assay; parameters: key: below the threshold = too weak to quantify, mostly under pKd 3.1 to 4; conditions: plain residues with an end cap or a label only (N-terminal biotin on a linker: ado-ado)

Binder | pKd
PALKNGQYWV [CSPG4, Q6UVK1] | 4.83
SAGADSETHC [SLCO1B1, Q9Y6L6] | below the threshold

target: TJP1_2, Q07157; assay: holdup assay; parameters: key: below the threshold = too weak to quantify, mostly under pKd 3.1 to 4; conditions: plain residues with an end cap or a label only (N-terminal biotin on a linker: ado-ado)
Sequence (Q07157 181-274): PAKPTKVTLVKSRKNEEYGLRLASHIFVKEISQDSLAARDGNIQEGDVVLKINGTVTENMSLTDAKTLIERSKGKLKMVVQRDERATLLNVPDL

Binder | pKd
PALKNGQYWV [CSPG4, Q6UVK1] | 4.69
SAGADSETHC [SLCO1B1, Q9Y6L6] | below the threshold
